Assay results reported in IntAct's records for PubMed 17035250.

B1: Fibulin-5 (Homo sapiens), Q9UBX5 (parent)
chain: MPGIKRILTVTILALCLPSPGNAQAQCTNGFDLDRQSGQCLDIDECRTIPEACRGDMMCVNQNGGYLCIPRTNPVYRGPYSNPYSTPYSGPYPAAAPPLSAPNYPTISRPLICRFGYQMDESNQCVDVDECATDSHQCNPTQICINTEGGYTCSCTDGYWLLEGQCLDIDECRYGYCQQLCANVPGSYSCTCNPGFTLNEDGRSCQDVNECATENPCVQTCVNTYGSFICRCDPGYELEEDGVHCSDMDECSFSEFLCQHECVNQPGTYFCSCPPGYILLDDNRSCQDINECEHRNHTCNLQQTCYNLQGGFKCIDPIRCEEPYLRISDNRCMCPAENPGCRDQPFTILYRDMDVVSGRSVPADIFQMQATTRYPGAYYIFQIKSGNEGREFYMRQTGPISATLVMTRPIKGPREIQLDLEMITVNTVINFRGSSVIRLRIYVSQYPF

Variants of: B1
Settings: with eln_bovin ELN

| effect of a mutation on the interaction | Variant |
| --- | --- |
| decreasing interaction strength | S227P |
| decreasing interaction strength | C217R |
